Experiments:
[1] = molecular target: Mt-PolDom (LigD polymerase domain) (UniProt P9WNV3 1-300); experiment: DNase I footprinting; 5 ug protein; settings: protein: recombinant; label: 32P 5'-end label
Mt-PolDom (crystal) = Mt-PolDom (crystal) (UniProt P9WNV3 1-300); experiment: crystal structure 2.4 A; 10 mM MnCl2; settings: protein: recombinant

B1: 1-nt gapped FP-T/FP-P/FP-D, 5'-P (dsDNA)
DNA 1: GGCAGCTTGGATCTTGTCGAAAAACGTCAACATTCGCCTAGGCTTCGGCAATACTGAGGTCTTGTCGAAAAACGTCAACATTGCGTGGCC
DNA 2: GGCCACGCAATGTTGACGTTTTTCGACAAGACCTCAGTAT
DNA 3: GCCGAAGCCTAGGCGAATGTTGACGTTTTTCGACAAGATCCAAGCTGCC
modifications: 5'-phosphate on FP-D
B1: binds [1].

B2: annealed break T/D (dsDNA)
DNA 1: GCCGCAGATC
DNA 2: GCGGC
modifications: 5'-phosphate on D
B2: binds (Mt-PolDom (crystal)).
